Measured values reported in article PMC8605562, “MSMEG_3955 from Mycobacterium smegmatis is a FMN bounded homotrimeric NAD(P)H:Flavin mononucleotide (FMN) oxidoreductase” (BMC Microbiology, 2021).

Biological target: the molecule itself
Assay: native gel or EMSA; NATIVE-PAGE (12% in the methods, 10% in the legend of Fig. 3a) of purified protein loaded without any treatment, 10 ug (Fig. 3a) or 20 ug each of wild type and mutant (Fig. 2a); band at ~115 kDa against ~36 kDa on SDS-PAGE

B1: MSMEG_3955 from Mycobacterium smegmatis, recombinant wild-type protein (enzyme, Mycobacterium smegmatis mc2 155, UniProt A0QZA6 1-334, looked up)
chain: MNTHFPDTETIHAALALAMRAPSIHNSQPWQWRVGERSVHLYADLDRHLTSTDPDSRDLLLSCGAALHHCVIAFAALGWYASVHRLPNPAEPEHLASIELRRQTPTDLDIALAAAIPRRRTDRRHYSAWPVSHSDIAMMGARAARAGVMLRRVESLSRLQDIVAESIARHAADDGYLRELTAWSGKYASTAGVPARSAPKPEPGAPLSSRMFAGAALKQPDTGAGADEGAVVLALGTADDTRMSRLRAGEATSLILLTATAMGLATCPVTEPLEISETRDAVQAEVFGASAFPQMMLRVGWAPVNADPLPPTPRRHVADAVRWLDGSPFEPESE
notes: MSMEG_3955, Mycobacterium smegmatis mc2 155, NADPH-dependent FMN oxidoreductase of the Acg family; gene amplified from genomic DNA with primers from the ATG to the stop codon (~1005 bp amplicon, ~36 kDa protein); tag removal is not described; also called protein MSMEG_3955; homologue of Rv3131; source: E. coli BL21 (DE3), pET-28a, purified (Ni-NTA)
stoichiometry N: 3
